Laboratory results taken from patent US20210079088A1 (published 2021).
Positions count from the first letter of the chain named.

T1: soluble human IL-4Rα (sIL-4Rα; PEPRO TECH, Catalog Number: 200-04R) (human, UniProt P24394 26-232)
T1 construct: Bought protein; also called shIL-4Rα; soluble hIL-4 Rα
T1 sequence: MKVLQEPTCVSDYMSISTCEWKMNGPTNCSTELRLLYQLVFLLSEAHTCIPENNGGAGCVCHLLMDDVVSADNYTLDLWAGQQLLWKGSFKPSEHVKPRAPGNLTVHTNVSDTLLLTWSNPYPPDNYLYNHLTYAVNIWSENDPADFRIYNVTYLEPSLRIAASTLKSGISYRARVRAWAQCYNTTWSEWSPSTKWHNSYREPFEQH

B1: L1020H1020 (antibody, V domains shown)
VH: EVQLVQSGGGLVHPGGSLRLSCAGSGFTFSRNAMFWVRQAPGKGLEWVSGIGTGGATSYADSVKGRFTISRDNAKNSLYLQMNSLRAEDMAVYYCARGRYYFPWWGQGTLVTVSS
VL: EIVLTQSPGTLSLSPGERATLSCRASQSVSSSYLAWYQQKPGQAPRLLIYGASSRATGIPDRFSGSGSGTDFTLTISRLEPEDFAVYYCQQYDHSAGWTFGQGTKVEIK
B2: L1020H1027 (antibody, V domains shown)
VH: B1 VH with Q6E, G24A, M90T
VL: B1 VL
B3: L1020H1029 (antibody, V domains shown)
VH: B1 VH with Q6E, H13Q, G24A
VL: B1 VL
B4: L1020H1031 (antibody, V domains shown)
VH: B1 VH with Q6E, H13Q, G24A, M90T, P103D, W104Y
VL: B1 VL
B5: L1021H1000 (antibody, V domains shown)
VH: B1 VH with S58N, P103D, W104Y
VL: B1 VL with Y50F, T57P
B6: L1021H1007 (antibody, V domains shown)
VH: B1 VH with P103D, W104Y
VL: B1 VL with Y50F, T57P
B7: L1021H1016 (antibody, V domains shown)
VH: B1 VH with S58N
VL: B1 VL with Y50F, T57P
B8: L1021H1020 (antibody, V domains shown)
VH: B1 VH
VL: B1 VL with Y50F, T57P
B9: L1021H1027 (antibody, V domains shown)
VH: B1 VH with Q6E, G24A, M90T
VL: B1 VL with Y50F, T57P
B10: L1021H1029 (antibody, V domains shown)
VH: B1 VH with Q6E, H13Q, G24A
VL: B1 VL with Y50F, T57P
B11: L1022H1000 (antibody, V domains shown)
VH: B1 VH with S58N, P103D, W104Y
VL: B1 VL with S31N
B12: L1024H1000 (antibody, V domains shown)
VH: B1 VH with S58N, P103D, W104Y
VL: B1 VL with S31N, Y50F, T57P
B13: L1024H1007 (antibody, V domains shown)
VH: B1 VH with P103D, W104Y
VL: B1 VL with S31N, Y50F, T57P
B14: L1024H1031 (antibody, V domains shown)
VH: B1 VH with Q6E, H13Q, G24A, M90T, P103D, W104Y
VL: B1 VL with S31N, Y50F, T57P
B15: L1021H1031 (antibody, V domains shown)
VH: B1 VH with Q6E, H13Q, G24A, M90T, P103D, W104Y
VL: B1 VL with Y50F, T57P

target: T1, soluble human IL-4Rα (sIL-4Rα; PEPRO …); test: ELISA, coated sIL-4Rα, culture supernatant
Method: Sample to be tested: For each antibody of the present invention, 10 μl and 2 μl of the culture supernatant of Expi293 cells expressing the antibody after transient transfection (the medium was Expi293 Expression Medium, Invitrogen, Catalog Number: A1435102; suspension culture was performed for 4 days at 100 rpm in a 8% CO2 incubator) were respectively added to 990 μl and 998 μl of PBS to prepare antibody samples to be tested of 1:100 and 1:500 dilutions.
100 μl of 100 μg/ml sIL-4Rα solution was added to 9.90 ml of PBS, mixed up and down, and then an antigen coating buffer of 1.0 μg/ml was obtained. The prepared antigen coating buffer was added to a 96-well ELISA plate (Corning) with a volume of 100 μl per well. The 96-well ELISA plate was incubated overnight in a refrigerator at 4° C. On the next day, the solution therein was discarded, and PBS containing 2% BSA was added to the 96-well ELISA plate row by row with a volume of 300 μl per well. The 96-well ELISA plate was incubated for 2 hours in a refrigerator at 4° C. Then the PBS containing 2% BSA was discarded and the plate was washed 3 times with PBST. Diluted antibodies to be tested were sequentially added to the corresponding wells, while the normal cell culture supernatants, as negative control samples, were added too. Three duplicate wells were made for each sample with a volume of 100 μl per well. The ELISA plate was wrapped with preservative film (or covered) and incubated for 1 h at 10° C. in a constant temperature incubator. Subsequently, the 96-well ELISA plate was taken out, and the solution therein was discarded. After washing with PBST for 3 times, TMB solution (Solarbio, Catalog Number: PR1200) was added to the 96-well ELISA plate row by row with a volume of 100 μl per well. The 96-well ELISA plate was placed at room temperature for 5 minutes, and 2 M H2SO4 solution was added in immediately to terminate the reaction. The 96-well ELISA plate was placed in flexstation 3 (Molecular Devices), the values of OD450 were read, and the data were collected, calculated and analyzed. Results were expressed relative to the affinity of control antibody 1.

OD450/OD450 Control antibody 1	Binder
0.26 ratio to control antibody 1	B1
0.4 ratio to control antibody 1	B2
1.01 ratio to control antibody 1	B3
1.12 ratio to control antibody 1	B4
2.42 ratio to control antibody 1	B5
0.44 ratio to control antibody 1	B6
0.63 ratio to control antibody 1	B7
0.24 ratio to control antibody 1	B8
0.29 ratio to control antibody 1	B9
1 ratio to control antibody 1	B10
0.16 ratio to control antibody 1	B11
0.69 ratio to control antibody 1	B12
0.23 ratio to control antibody 1	B13
0.9 ratio to control antibody 1	B14
0.9 ratio to control antibody 1	B15
